Literature values as cited in article PMC10382592.

Target: Cys23 (UniProt position 23, FIKPTCPYCRR)

For “Glutaredoxin-1 (GLRX, thioltransferase) (Homo sapiens (inferred from the title of ref 11, 'Thiotransferase in human red blood cells'; the sentence itself refers to mammalian GLRX))”, the pKa is given as “approximately 3.5”.
